Consider 10 molecules from US20250340659A1 (PETMEDIX, published 2025).

For orientation: koff means the first-order rate constant of dissociation.

In assay [1] the target is T1, canine OX40L, full length membrane form, expressed on HEK293 cells (canine).
T1 construct: also called OX40L expressing HEK; HEK OX40L cells
T1 chain: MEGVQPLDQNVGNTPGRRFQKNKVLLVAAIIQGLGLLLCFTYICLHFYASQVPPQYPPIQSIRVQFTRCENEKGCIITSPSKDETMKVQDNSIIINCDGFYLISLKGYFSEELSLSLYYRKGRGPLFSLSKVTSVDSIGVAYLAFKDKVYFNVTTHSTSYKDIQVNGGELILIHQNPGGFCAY
Briefly: flow cytometry. The protocol:
(§1) CHO supernatants diluted in FACS buffer (PBS containing 3% FBS) at 1, 5 or 10 μg/ml were used to screen for their binding capacity to canine OX40L using a cell-based assay. In brief, HEK293 or MEF cells (or any other commonly used cell lines) expressing canine OX40L at the cell surface are incubated with 100 μll of FACS buffer containing the candidate antibody for 30′ on ice. Cells are washed with 150 μl FACS buffer followed by centrifugation at 300 g for 3 min. The cell pellet is resuspended in FACS buffer containing a 1:1000 dilution of a fluorescently labelled secondary antibody recognising the canine Fc region of the test antibody for 30 min in the dark, followed by washing with 150 μl FACS buffer. Cells are resuspended in FACS buffer and flow cytometry performed using either a […] cytometer, followed by data analysis using FlowJo (FIG. 6 and Table 4).

Assay [2] has as its target T2, recombinant canine OX40L ECD-TNCc-HIS protein (canine).
T2 construct: also called Trimeric OX40L probe (HIS tag); trimeric canine OX40L
T2 chain: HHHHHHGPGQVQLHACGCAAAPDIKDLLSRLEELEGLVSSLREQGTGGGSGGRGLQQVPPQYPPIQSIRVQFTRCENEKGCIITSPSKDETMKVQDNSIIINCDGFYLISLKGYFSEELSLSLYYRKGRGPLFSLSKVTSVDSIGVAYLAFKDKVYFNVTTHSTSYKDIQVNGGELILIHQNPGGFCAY
Briefly: SPR Koff (kd1). The protocol: (§2) Affinity (Kd) of OX40L antibodies is measured by SPR, using a recombinant canine OX40L ECD-TNCc-HIS protein (Seq ID 811) as the capturing agent (FIG. 5B).
(§3) Functional affinity is determined using a Biakore 8K (Cytiva). in brief, purified OX40L ECD-TNCc-HIS protein is covalently bound at low density to the surface of a CM5 sensor chip (Cytiva) by amine coupling, using the manufacturer's recommended protocol. Candidate antibodies are subsequently passed across the chip surface at a range of concentrations and affinity determined using the dedicated software (Biacore Insight Evaluation Software). Curves were fitted using a bivalent analyte binding model.

Assay [3] deals with T2, recombinant canine OX40L ECD-TNCc-HIS …. Briefly: SPR Koff (kd2). The protocol: as §2, §3
For assay [4], the target named is T1, canine OX40L, full length membrane …. Briefly: cell-based or functional assay.
In assay [5] the target is T2, recombinant canine OX40L ECD-TNCc-HIS …. Briefly: SPR KD1, bivalent analyte model. The protocol: as §2, §3
Assay [6] concerns the target T1, canine OX40L, full length membrane …. Briefly: flow cytometry, OX40L HEK minus WT HEK. The protocol:
as §1

Changes are numbered by the printed parent chain.

B1: PMX041 (antibody)
heavy: EVHLVESGGDLVKPEGSLRLSCVVSGFTFTTNDMSWVRQAPGKGLQWVAYITSDGRITTYTDAVKGRFTISRDNAKNTLYLQMNSLRTEDTAVYYCAKHSSNWSRGRFGLDYWGHGTSLFVSSASTTAPSVFPLAPSCGSTSGSTVALACLVSGYFPEPVTVSWNSGSLTSGVHTFPSVLQSSGLYSLSSMVTVPSSRWPSETFTCNVAHPASKTKVDKPVPKRENGRVPRPPDCPKCPAPESLGGPSVFIFPPKPKDTLLIARTPEVTCVVVDLGREDPEVQISWFVDGKQMQTAKTQPREEQFNGTYRVVSVLPIGHQDWLKGKQFTCKVNHIGLPSPIERTISKARGQAHQPSVYVLPPSREELSKNTVSLTCLIKDFFPPDIDVEWQSNGQQEPESKYRTTPPQLDEDGSYFLYSKLSVDKSRWQRGDTFICAVMHEALHNHYTQKSLSHSPGK
VL: SYVLTQLPSKNVTLKQPAHITCGGDNIGSKSVHWYQQKLGQAPVLIIYYDSSRPTGIPERFSGANSGNTATLTISGALAEDEADYYCQVWDNSASVFGGGTHLTVL
notes: also called PMX41
In the case of B1, in assay [1], the “GEO mean OX40L expressing HEK” value is 1.56e+06. Further, the koff in assay [2] turned out to be 0.0134 s⁻¹. Besides, in assay [3], the koff was determined as 0.000409 s⁻¹. Further, in assay [4], the “% Signal Inhibition Average” value was 80.1%, the “% Signal Inhibition Rep1” value was 86.4%, the “% Signal Inhibition Rep2” value is 78.2% and the “% Signal Inhibition Rep3” value amounted to 75.6%. For the same molecule, in assay [5], the Kd was 1590 nM. Also, in assay [6], the GEO mean difference was 1.53e+06.

B2: PMX050 (antibody, V domains shown)
VH: EVQLVESGGDLVKPEGSLRLSCVVSGFTFTTYDMSWVRQAPGKGLQWVAYITNDGRITTYTDAVKGRFTISRDNAKNTLYLQMNSLRTVDTGVYYCARHSSSWSRGRFGLDYWGHGTSVFVSS
VL: B1 VL with S29R, S31G
notes: also called PMX50
Consider B2, for which, in assay [1], the “GEO mean OX40L expressing HEK” value was 3.08e+06. Moreover, the koff in assay [2] came out at 0.000525 s⁻¹. In assay [3], the koff was found to be 0.161 s⁻¹. Moreover, in assay [4], the “% Signal Inhibition Average” value was 76.6%, the “% Signal Inhibition Rep1” value was 68.7%, the “% Signal Inhibition Rep2” value is 83.3% and the “% Signal Inhibition Rep3” value turned out to be 77.6%. Also, the Kd in assay [5] came out at 1.31 nM. The molecule further returned a GEO mean difference in assay [6] of 3.06e+06.

B3: PMX039 (antibody)
heavy: B1 heavy with H3Q, T30I, S53N, I57Y, T59S, W103Y, S104Y, L110M
VL: B1 VL with S52T, N92S
notes: also called PMX39
B3: the “GEO mean OX40L expressing HEK” value in assay [1] stood at 1.52e+06. The koff in assay [2] was found to be 0.0128 s⁻¹. The koff in assay [3] amounted to 0.00139 s⁻¹. Besides, in assay [4], the “% Signal Inhibition Average” value came to 80.6%, the “% Signal Inhibition Rep1” value amounted to 81.7%, the “% Signal Inhibition Rep2” value was found to be 86.6% and the “% Signal Inhibition Rep3” value turned out to be 73.6%. In addition, in assay [5], the Kd turned out to be 46.4 nM. This molecule showed a GEO mean difference in assay [6] of 1.49e+06.

B4: PMX049 (antibody, V domains shown)
VH: EVQLVESGGDLVKPGGSLRLSCVASGFTFNNYEMYWVRQAPGKGLEWVARIYESGSTTFSAEAVTGRFTISRDNAKNMVYLQMNSLRAEDTAVYYCASASSSSWRFDYWGQGTLVTVSS
VL: SYVLTQLPSVSVTLGQTARITCGGDSIGRKNVCWFQQRLGQAPELIIYDDRSRPSGIPERFSGANSGNTATLTISGALAEDEADYYCQVWDSSTGVFGGGTHLTVL
notes: also called PMX49
In the case of B4, the “GEO mean OX40L expressing HEK” value in assay [1] was 3.5e+06. In addition, the koff in assay [2] is 0.00211 s⁻¹. Further, the koff in assay [3] worked out at 22 s⁻¹. In addition, in assay [4], the “% Signal Inhibition Average” value worked out at 84.7%, the “% Signal Inhibition Rep1” value is 84.6%, the “% Signal Inhibition Rep2” value amounted to 79.3% and the “% Signal Inhibition Rep3” value stood at 90.1%. Moreover, the Kd in assay [5] worked out at 15.6 nM. The molecule also had a GEO mean difference in assay [6] of 3.48e+06.

B5: PMX037 (antibody, V domains shown)
VH: B4 VH with V5L, N30S, I51F, F59Y, T65P, V79A
VL: B4 VL with R29S, C33Y, R38K, E44V
notes: also called PMX37
As for B5, in assay [1], the “GEO mean OX40L expressing HEK” value stood at 1.42e+06. Also, the koff in assay [2] is 0.0183 s⁻¹. Further, the koff in assay [3] was 0.000862 s⁻¹. In addition, in assay [4], the “% Signal Inhibition Average” value came out at 78.4%, the “% Signal Inhibition Rep1” value was 85.7%, the “% Signal Inhibition Rep2” value stood at 79.8% and the “% Signal Inhibition Rep3” value is 69.8%. In assay [5], the Kd amounted to 308 nM. The same molecule registered a GEO mean difference in assay [6] of 1.39e+06.

B6: PMX048 (antibody, V domains shown)
VH: B4 VH with S56T, F59Y, V64D, Y80F, S103T
VL: B4 VL with C33Y, R38K, E44V
notes: also called PMX48
B6: the “GEO mean OX40L expressing HEK” value in assay [1] is 3.92e+06. In addition, in assay [2], the dissociation rate constant (koff) was found to be 0.00485 s⁻¹. Besides, the off-rate constant (koff) in assay [3] stood at 21 s⁻¹. In addition, in assay [4], the “% Signal Inhibition Average” value is 69.9%, the “% Signal Inhibition Rep1” value is 57.5%, the “% Signal Inhibition Rep2” value came to 69.3% and the “% Signal Inhibition Rep3” value came out at 82.9%. Further, in assay [5], the Kd stood at 12.2 nM. In assay [6], this molecule came in with a GEO mean difference of 3.9e+06.

B7: PMX025 (antibody, V domains shown)
VH: EVHLVESGGDLVKPGGSLRLSCVASGFTFSSYHMSWVRQAPGKGLQWVAFINAGEISTNYADAVKGRFTISRDNAKNILYLQMNSLRAEDTAVYYCASGHIWIRPFDYWGQGTLVTVSS
VL: SYVLTQLPSMSVTLRQTARITCEGDSIGRKRVNWYQQKLGQVPVLIIYDDDSRPSGIPERFSGANSGNTATLTISGALAEDEAEYYCQVWDSSNNWVFGEGTQLTVL
notes: also called PMX25
On to B7, for which the “GEO mean OX40L expressing HEK” value in assay [1] worked out at 2.83e+06. In addition, the koff in assay [2] is 0.0129 s⁻¹. Besides, the koff in assay [3] was determined as 0.00169 s⁻¹. In assay [4], the “% Signal Inhibition Average” value was 72.6%, the “% Signal Inhibition Rep1” value was found to be 87.9%, the “% Signal Inhibition Rep2” value is 61.7% and the “% Signal Inhibition Rep3” value is 68.3%. Also, in assay [5], the Kd was determined as 195 nM. In addition, the GEO mean difference in assay [6] worked out at 2.81e+06.

B8: PMX027 (antibody, V domains shown)
VH: B7 VH with S31T, L79F, S98T
VL: B7 VL with D25N
notes: also called PMX27
As to B8, in assay [1], the “GEO mean OX40L expressing HEK” value is 1.65e+06. Moreover, the koff in assay [2] was 0.0161 s⁻¹. For the same molecule, the koff in assay [3] turned out to be 0.000505 s⁻¹. For the same molecule, in assay [4], the “% Signal Inhibition Average” value worked out at 80.4%, the “% Signal Inhibition Rep1” value is 72.2%, the “% Signal Inhibition Rep2” value came out at 83.5% and the “% Signal Inhibition Rep3” value was determined as 85.5%. Also, in assay [5], the Kd amounted to 316 nM. Further, in assay [6], the GEO mean difference was 1.62e+06.

B9: PMX097 (antibody, V domains shown)
VH: EVQLVESGGDLVRPGGSLRLSCVASGITFSSYHMSWVRQAPGKGLQWVALINSGGSSITYADVVRGRFTISRDYAKNTLYLQMNSLRAEDTAVYYCASGSIWTHFDYWGQGTRVTVSS
VL: SFVLTQLPSVSVTLRQTARITCGGDIIGSKNVYWYQQRLGQAPVLIIYRDSNRPTGIPERFSGASSGNTATLTISGALAEDEADYYCQVWDNSNKAMFGGGTHLTVL
notes: also called PMX97
Turning to B9, the koff in assay [2] turned out to be 7.16e-05 s⁻¹. Also, the koff in assay [3] worked out at 0.744 s⁻¹. In addition, in assay [4], the “% Signal Inhibition Average” value amounted to 60.8%, the “% Signal Inhibition Rep1” value was 56.1%, the “% Signal Inhibition Rep2” value was determined as 73.1% and the “% Signal Inhibition Rep3” value was determined as 53.2%. For the same molecule, the Kd in assay [5] was 0.492 nM.

B10: PMX104 (antibody, V domains shown)
VH: B9 VH with I27F, S31N, L50F, S56T, I58T, V63A, I70T, A97T, R113L
VL: B9 VL with N31S, Y35F, R38K, V44I, S51D, T73I, D84H, N92S, N94S
For the molecule B10, in assay [2], the koff stood at 0.00174 s⁻¹. The koff in assay [3] was determined as 1.23 s⁻¹. For the same molecule, in assay [4], the “% Signal Inhibition Average” value stood at 31%, the “% Signal Inhibition Rep1” value worked out at 31%, the “% Signal Inhibition Rep2” value was 28.1% and the “% Signal Inhibition Rep3” value stood at 33.9%. In assay [5], the Kd stood at 17.6 nM.
